In the supplement of paper PMC9170038:

Tested on: MS2 coat protein
Assay: apparent KD of MS2 coat protein; higher = weaker reporter binding
Details: Eterna round: R107
How it was run: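 Apparent KD was obtained for each design as the median of normalised binding-curve fits over its clusters. RNA switches transcribed on-chip from Illumina sequencing clusters were titrated with SNAP-549-labelled MS2 coat protein (twofold steps, 0.7 or 1.5 nM to 3 µM) in 100 mM Tris-HCl pH 7.5, 80 mM KCl, 4 mM MgCl2, without or with constant ligand.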

[1] = input ligand: theophylline 20 uM
[2] = input ligand: theophylline 2 mM
[3] = input ligand: tryptophan 2.4 mM

Sequence	apparent KD of MS2 coat protein (input ligand: arginine 13.2 mM) [nM]	apparent KD of MS2 coat protein (input ligand: none) [nM]	apparent KD of MS2 coat protein [1] [nM]	apparent KD of MS2 coat protein [2] [nM]	apparent KD of MS2 coat protein [3] [nM]
GUCCACAGCCGAAGGAGCGCUAGAAGAUGACAUGAGGAUCACCCAUGUGUGUGAUGUGGCUAGCAGGUAGGUCGCGGAGUGGAUU [Exclusion - Arginine B (Freestyle 14)]	20.5	21.7	30.3	24.8	19.6
GUCCUAAGGUCGGCCGCCACUGUAGAGUGUGAGCCAUCACAUGAGGAUCACCCAUGUUGUUGCUAUAGGACCGGGAUUGUAGGAC [#22 Exclusion Tryptophan B]	13.5		15.5	12.6	
GUCCUAGCGAUCGCUCGCUAGGACGCGGAUACCAGCGAGGUCCAUCGCCCUUGGCAGCCGAACAUGAGGAUCACCCAUGUCGGUA [#1 Same State - Theophylline A Attempt #18 (HarryS)]	8.4		14.2		10.2
GUGUGCGGCACGGCCGCCACUGCGGUGGUGUGACAUGAGGAUCACCCAUGUUGUCAUGCGGCCCUUAGGACCGGGUGGCGUGCAC [#1 Exclusion - Tryptophan B Attempt #17 (HarryS)]	27.4	37.3	61.2	50.4	46.5
GUUAGAUCAAAAGAUUUAACAGUGGGUGAACGAGGACCGGUACGGCCGCCACUCGGACAUGAGGAUCACCCAUGUCCAUGUGAAA [AstrosExyTryA#16]	19.4	17.2	15.2	15.9	43.5
GUUAUGGACCUGGAUACCAGCUGGUACAAGGGCGGUCUACAUGAGGAUCACCCAUGUGUCAGCCCUUGGCAGCCAGCAACCCACU [Cele]	10.6		16.7		9.57
GUUGGUUUGGGAAGGAGCGGGUAUGUUGUCUACUUGAUCCUAACAUGAGGAUCACCCAUGUCCCAGGUAGGUCGCCCAGGCUUUG [12.aD]	35.7	139	230	103	98.4
UAACAUGAGGAUCACCCAUGUUUAGAUGAACGAGGACCGGUACGGCCGCCACUCGAUAAGUGGCAAGAACGAGGGAUUGUAUGCU [Same State Trp A GF3]	12.7	13.8	22.6	11.7	13.2
UAACAUGAGGAUCACCCAUGUUUGAAGGAACGAGGACCGGUACGGCCGCCACUCGACGAGUGGAUGAGAAGUGGGCUUGUGUGCU [Same State Trp A GF9]	13.7	15.5	16.3	13	16.5
UAAUAAUUGUGAUUCUCAGGUCCUCGAUAACGAGGACCGGUACGGCCGCCACUCGAACAUGAGGAUCACCCAUGUAUGAGGACCU [M'-T'-T-MS2-T'' - Design 3]	13.8	15.9	21	19.6	13.8
UAAUAGGUCCAGAACGUACCAGGUGAUCAACGAGGACCGGUACGGCCGCCACUCGAAACAUGAGGAUCACCCAUGUAACUGGACC [|T'-M'-Trp-Ms2|_Design 2_ML]	173	72.9	95.3	518	61.4
UAAUCCGGUCCUCGAUAGGUGAUCCUCUAACGAGGACCGGUACGGCCGCCACUCGAUAACAUGAGGAUCACCCAUGUAAUAAUAA [|T'-M'-Trp-Ms2|_Design16]	33		41.9	45.1	
UACAUGAGGAUCACCCAUGUAUGAAUAGAUACCAGAUAAAAUAAGGUCCCUUGGCAGCUAGUGAAUAAAGGGUGGGUAAAAUAAU [Exclusion Theophyline A GF 1]	11.3		12.3		9.24
UACAUGAGGAUCACCCAUGUAUGUAUCGAAGGAGCGCGUGUAAACGCAGGUAGGUCGCGAACAUGAGGAUCACACAUGAGGAUCA [Same State Arginine A]	20.9		31.1	37.5	29.3
UACAUGAGGAUCACCCAUGUCUGAACUGAAGGAGCGCUAAACAAGGCAGGUAGGUCGCGGAAUUUUGUGUGCAUAUGCAUAUGGG [9.K]	23.6	30.6	46.7	36.5	31.1
UACAUGAGGAUCACCCAUGUGUAGAGGGAUACCAGUGACAGUAAGCGCCCUUGGCAGCCCGUGAACAAUGGGUGAGCAAAAUAGU [#17 Exclusion-TheophyllineA]	41.4	19.4	233	25.6	44.7
UACUUGCGGUCGGCCGCCACUACGAGGCAGACCUUCACAUGAGGAUCACCCAUGUAGUCGGCUAGUAGGACCGGGAUGGCAUAAA [Solasoce]	28.6	29.2	41.9	41.8	16.3
UACUUGCUGACGGCCGCCACUAGAACAUGAGGAUCACCCAUGUACCUGGUCCUUCAUGGGUGGACUAGGACCGGGUCAGCAAGAU [(Trp1)-(Ms2)-(T)'-(M)'-(Trp2)_Design4]	186		418	517	

Sequence	apparent KD of MS2 coat protein (input ligand: arginine 13.2 mM) [nM]	apparent KD of MS2 coat protein (input ligand: none) [nM]	apparent KD of MS2 coat protein [1] [nM]	apparent KD of MS2 coat protein [2] [nM]	apparent KD of MS2 coat protein [3] [nM]
UAGAUAGAGGGAAGGAGCGCAGUAACAUAACAUGAGGAUCACCCAUGUAAGAAAUUAAUAAUGCAGGUAGGUCGCCCAAGAUGAU [#10 Same State - Arginine B]	12.4	13.6	17	15.1	13.9
UAGUACAUGAGGAUCACCCAUGUCGGAGGUCGAGGACCGGUACGGCCGCCACUCGGUCAUGCCCUACGAUACGACAGGAAUCUGU [theeternabot_sameState_MS2_Trp_A_28]	21.8		36.5	28.9	
UAUACUAUGAAAGUAGUAUAUACGUGUUGACGAGGACCGGUACGGCCGCCACUCGACAUGAGGAUCACCCAUGUAUAGAAUAAGU [TrypA_F1]	18.6	23.7	24.4	30	15.3
UAUAUUGUGAUGGAUACCAGCAGAGAAAACGUUUAUCCUAACAUGAGGAUCACCCAUGUAUGCCCUUGGCAGCUGUUGUGAUAUA [8.N]	47.6		73.9		61.1
UAUCCACAUGAGGAUCACCCAUGUAAGGAAGGAGCGGUGAAUGCACCAGGUAGGUCGCCUUGCUGAGGACUGUCGGUGGAUUCGU [Exclusion - Arginine A (Freestyle 22)]	26.8	32.8	43.2	39.5	32
UAUCGACACUGAAGGAGCGAGAUGACAAACAUGAGGAUCACCCAUGUUAUGGGUUGUUAAUCUCAGGUAGGUCGCAGUGGUCGCA [Same State Arginine B GF 18]	67.8	93.3	130	108	85.7
UAUCGUCAGACGGCCGCCACUAGAACAUGAGGAUCACCCAUGUAGGUCCUAGAUUCCUCAAUAACUAGGACCGGGUCUGACGAAU [(Trp1)-(Ms2)-(T)'-(M)'-(Trp2)_Design14]	81.8		137	224	
UAUCGUCAGACGGCCGCCACUAGAACAUGAGGAUCACCCAUGUAGUGGCCGGAUACCUCAAUAACUAGGACCGGGUCUGACGAAU [(Trp1)-(Ms2)-(T)'-(M)'-(Trp2)_Design17]	36.6	52.2	96.5	54	32.7
UAUGCACAUGAGGAUCACCCAUGUAUGGAAGGAGCGGUGAAUAAACCAGGUAGGUCGCCAUGGUGAGGGUCAUCUAUGUAAUCGU [Exclusion - Arginine A (Freestyle 5)]	51	47.3	78.4	80.3	59.3
UAUUCUGACACAGAUACCAGUCAAUUCCGUGGCAAGUGCUACAUGAGGAUCACCCAUGUCGACCCUUGGCAGCUGAAGAGAUACA [theeternabot_exclusion_MS2_Theo_B_50]	10.9		14.7		11.2
UCAAAUGCGGCGGCCGCCACUCGCGGAUAACGAUAGCUUAACAUGAGGAUCACCCAUGUGUCAUGGAGGACCGGGCCCAUAACAU [ttmullin]	23.4	27.2	35.1	37.1	23.9
UCACAUGAGGAUCACCCAUGUGUCAGAGAAGGAGCGGCCGCAAGGCCAGGUAGGUCGCUCGGGUAUUGUGAGGUUCACCCGUGUG [#1 Exclusion - Arginine A Attempt #12 (Inspired by cyborg)]	26.7	35.8	57.3	44.4	34.6
UCAGGAAGAGCGGCCGCCACUGUUUGGCAUGCGGAUGAAGGAACAUGAGGAUCACCCAUGUAGAUUAGGACCGGGCUUGCGGAGA [szeemullin]	20.9	13.7	24.2	19.4	12.6
UCAGUGGGUUCGGCCGCCACUUGAGUGAUGGUGCCUCAAUAAGUCUACAUGAGGAUCACCCAUGUAAGGACCGGGAAUUUUAUGG [theeternabot_exclusion_MS2_Trp_B_19]	33.3		59.1	43.2	
UCAUAAGUACCGGUCCUCAGAUCCUCAUGACGAGGACCGGUACGGCCGCCACUCGAAACAUGAGGAUCACCCAUGUAAUAACAUU [Brourdmod23]	19.5		28.4	26.1	
UCAUACAUGAGGAUCACCCAUGUUCGUGGGCGAGGACCGGUACGGCCGCCACUCGUACUAACGGUUUCUUAAACUUCCUUUCGAG [theeternabot_sameState_MS2_Trp_A_49]	28.3		41.2	40.4	
UCAUUGAGAGUCAUCCAGCGUUAAUGGGAUACCAGAGUUCUUUUACUCCCUUGGCAGCCCGGAACAUGAGGAUCACCCAUGUCUG [theeternabot_exclusion_MS2_Theo_A_39]	16.7		44.7		31.8
